Results from article PMC12096439, “Ion-DNA Interactions as a Key Determinant of Uracil DNA Glycosylase Activity”.

Molecular target: UNG2-Fluor (human, UniProt P13051 =C+1-313, C141A;C166A;C290A;internal_change)
Test: fluorescence quenching titration; 1 mM MgCl2; 10 mM Tris-Cl, 0.1 mM EDTA, pH 8.0, 2 mM NaCl carry-over, MgCl2 varied, 22 C, 50 nM UNG2-Fluor; ex 495 nm, em 520 nm
Details: protein: recombinant; tags: N-terminal fluorescein (maleimide on added Cys); label: 5' Iowa Black FQ; single strand

UNG2-Fluor, sequence (P13051 other isoform, or with tags, fused parts or gaps C141A;C166A;C290A;): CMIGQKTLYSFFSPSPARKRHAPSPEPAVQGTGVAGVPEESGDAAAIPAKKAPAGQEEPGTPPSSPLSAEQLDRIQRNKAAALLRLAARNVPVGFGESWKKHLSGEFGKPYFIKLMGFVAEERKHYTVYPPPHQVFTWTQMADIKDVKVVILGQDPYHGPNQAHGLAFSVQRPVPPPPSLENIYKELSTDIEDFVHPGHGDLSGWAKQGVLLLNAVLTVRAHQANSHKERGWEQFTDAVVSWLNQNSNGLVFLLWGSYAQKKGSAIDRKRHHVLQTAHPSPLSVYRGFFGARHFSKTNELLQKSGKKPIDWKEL

Binder	Kd [nM]
CGATAG (ssDNA) [6 nt dark quencher ssDNA]	1000
TCAGGTGAATCGATAGCTAAGAGCATG (ssDNA) [27 nt dark quencher ssDNA]	3
